Data from patent US20250327097A1, “ORGANISMS PRODUCING LESS CROTONIC ACID” (Global Bioenergies, priority 2021, published 2025).

B1: L223Y-I283T-N285P-N287T-Q290E-S322T-N388M-K394R-K423G-C430A-L432F-L434W-S436N-dG462 (protein)
chain: MFLKSLREQINLLKRQGDLRIINRPVDSYLEAAAIIRRSTETKAPVPLMTNIKGYPGCSIVGGLAALSSNPEYPLSRVAMSLGLSTTASAQSIVQYLIDGLKKTPYLPVEIDSNSAPCKQNILRGEDASLAHFPIPQVHQHDGNRYVNTWGVFIVESPDGQWCNWSIQRVQYLNDRQMIALVFPSQHISDIWEEWVKIGKPMPYALVQGCEPIVPYIAGLPLYERNVNEAEYIGALYGKGIEVVKCETHDLRVPASSEVVIEGYFAITREGVEGPFGEFAGYTPPETSLEPILSITAISWQDDPIWPVVAEGKPVDEYHTCTGIGDAAAIQNVLLTANLPVSFVWVPLYSACHLMIVSINRHWRQTHPDLTSEQLTKKVGDVIHQTRMSIKLPRIVVLDDDVDPADTESLLWALATRIHPERGRYFYESAIFPWLNCYSEEERHNRKGKRVIIDALLPENHGAISSFDYAYPDDIKQRVLMHWETDFSHD
B2: I283T-P284D-i284aP-N287P-S322T-N388M-C430N-L432F-L434W-S436N-H461A-dG462 (protein)
chain: MFLKSLREQINLLKRQGDLRIINRPVDSYLEAAAIIRRSTETKAPVPLMTNIKGYPGCSIVGGLAALSSNPEYPLSRVAMSLGLSTTASAQSIVQYLIDGLKKTPYLPVEIDSNSAPCKQNILRGEDASLAHFPIPQVHQHDGNRYVNTWGVFIVESPDGQWCNWSIQRVQYLNDRQMIALVFPSQHISDIWEEWVKIGKPMPYALVQGCEPIVPYIAGLPLLERNVNEAEYIGALYGKGIEVVKCETHDLRVPASSEVVIEGYFAITREGVEGPFGEFAGYTDNEPSLQPILSITAISWQDDPIWPVVAEGKPVDEYHTCTGIGDAAAIQNVLLTANLPVSFVWVPLYSACHLMIVSINRHWRQTHPDLTSEQLTKKVGDVIHQTRMSIKLPKIVVLDDDVDPADTESLLWALATRIHPERKRYFYESNIFPWLNCYSEEERHNRKGKRVIIDALLPENAGAISSFDYAYPDDIKQRVLMHWETDFSHD
B3: N287K-N388M-K394R-C430N-L432F-L434W-S436N (protein)
chain: MFLKSLREQINLLKRQGDLRIINRPVDSYLEAAAIIRRSTETKAPVPLMTNIKGYPGCSIVGGLAALSSNPEYPLSRVAMSLGLSTTASAQSIVQYLIDGLKKTPYLPVEIDSNSAPCKQNILRGEDASLAHFPIPQVHQHDGNRYVNTWGVFIVESPDGQWCNWSIQRVQYLNDRQMIALVFPSQHISDIWEEWVKIGKPMPYALVQGCEPIVPYIAGLPLLERNVNEAEYIGALYGKGIEVVKCETHDLRVPASSEVVIEGYFAITREGVEGPFGEFAGYIPNEKSLQPILSITAISWQDDPIWPVVAEGKPVDEYHTCSGIGDAAAIQNVLLTANLPVSFVWVPLYSACHLMIVSINRHWRQTHPDLTSEQLTKKVGDVIHQTRMSIKLPRIVVLDDDVDPADTESLLWALATRIHPERKRYFYESNIFPWLNCYSEEERHNRKGKRVIIDALLPENHGAISSFDYAYPDDIKQRVLMHWETDFSHD
B4: I283T-P284D-i284aP-N287P-S322T-N388M-C430N-L432F-L434W-S436N-H461A-dG462-A463T (protein)
chain: MFLKSLREQINLLKRQGDLRIINRPVDSYLEAAAIIRRSTETKAPVPLMTNIKGYPGCSIVGGLAALSSNPEYPLSRVAMSLGLSTTASAQSIVQYLIDGLKKTPYLPVEIDSNSAPCKQNILRGEDASLAHFPIPQVHQHDGNRYVNTWGVFIVESPDGQWCNWSIQRVQYLNDRQMIALVFPSQHISDIWEEWVKIGKPMPYALVQGCEPIVPYIAGLPLLERNVNEAEYIGALYGKGIEVVKCETHDLRVPASSEVVIEGYFAITREGVEGPFGEFAGYTDNEPSLQPILSITAISWQDDPIWPVVAEGKPVDEYHTCTGIGDAAAIQNVLLTANLPVSFVWVPLYSACHLMIVSINRHWRQTHPDLTSEQLTKKVGDVIHQTRMSIKLPKIVVLDDDVDPADTESLLWALATRIHPERKRYFYESNIFPWLNCYSEEERHNRKGKRVIIDALLPENAGTISSFDYAYPDDIKQRVLMHWETDFSHD
B5: I283T-P284D-i284aP-N287P-S322T-N388M-E421V-C430N-L432F-L434W-S436N-dG462-A463T (protein)
chain: MFLKSLREQINLLKRQGDLRIINRPVDSYLEAAAIIRRSTETKAPVPLMTNIKGYPGCSIVGGLAALSSNPEYPLSRVAMSLGLSTTASAQSIVQYLIDGLKKTPYLPVEIDSNSAPCKQNILRGEDASLAHFPIPQVHQHDGNRYVNTWGVFIVESPDGQWCNWSIQRVQYLNDRQMIALVFPSQHISDIWEEWVKIGKPMPYALVQGCEPIVPYIAGLPLLERNVNEAEYIGALYGKGIEVVKCETHDLRVPASSEVVIEGYFAITREGVEGPFGEFAGYTDNEPSLQPILSITAISWQDDPIWPVVAEGKPVDEYHTCTGIGDAAAIQNVLLTANLPVSFVWVPLYSACHLMIVSINRHWRQTHPDLTSEQLTKKVGDVIHQTRMSIKLPKIVVLDDDVDPADTESLLWALATRIHPVRKRYFYESNIFPWLNCYSEEERHNRKGKRVIIDALLPENHGTISSFDYAYPDDIKQRVLMHWETDFSHD
B6: I283T-P284D-i284aP-N287P-S322T-N388M-E421V-C430N-L432F-L434W-S436N-H461T-dG462-A463T (protein)
chain: MFLKSLREQINLLKRQGDLRIINRPVDSYLEAAAIIRRSTETKAPVPLMTNIKGYPGCSIVGGLAALSSNPEYPLSRVAMSLGLSTTASAQSIVQYLIDGLKKTPYLPVEIDSNSAPCKQNILRGEDASLAHFPIPQVHQHDGNRYVNTWGVFIVESPDGQWCNWSIQRVQYLNDRQMIALVFPSQHISDIWEEWVKIGKPMPYALVQGCEPIVPYIAGLPLLERNVNEAEYIGALYGKGIEVVKCETHDLRVPASSEVVIEGYFAITREGVEGPFGEFAGYTDNEPSLQPILSITAISWQDDPIWPVVAEGKPVDEYHTCTGIGDAAAIQNVLLTANLPVSFVWVPLYSACHLMIVSINRHWRQTHPDLTSEQLTKKVGDVIHQTRMSIKLPKIVVLDDDVDPADTESLLWALATRIHPVRKRYFYESNIFPWLNCYSEEERHNRKGKRVIIDALLPENTGTISSFDYAYPDDIKQRVLMHWETDFSHD
B7: I283T-P284D-i284aP-N287P-S322T-N388M-E421V-R422F-C430N-L432F-L434W-S436N-H461T-dG462-A463T (protein)
chain: MFLKSLREQINLLKRQGDLRIINRPVDSYLEAAAIIRRSTETKAPVPLMTNIKGYPGCSIVGGLAALSSNPEYPLSRVAMSLGLSTTASAQSIVQYLIDGLKKTPYLPVEIDSNSAPCKQNILRGEDASLAHFPIPQVHQHDGNRYVNTWGVFIVESPDGQWCNWSIQRVQYLNDRQMIALVFPSQHISDIWEEWVKIGKPMPYALVQGCEPIVPYIAGLPLLERNVNEAEYIGALYGKGIEVVKCETHDLRVPASSEVVIEGYFAITREGVEGPFGEFAGYTDNEPSLQPILSITAISWQDDPIWPVVAEGKPVDEYHTCTGIGDAAAIQNVLLTANLPVSFVWVPLYSACHLMIVSINRHWRQTHPDLTSEQLTKKVGDVIHQTRMSIKLPKIVVLDDDVDPADTESLLWALATRIHPVFKRYFYESNIFPWLNCYSEEERHNRKGKRVIIDALLPENTGTISSFDYAYPDDIKQRVLMHWETDFSHD
B8: I283T-P284D-i284aP-N287P-S322T-N388M-E421V-R422F-C430N-L432F-L434W-S436N-dG462-A463T (protein)
chain: MFLKSLREQINLLKRQGDLRIINRPVDSYLEAAAIIRRSTETKAPVPLMTNIKGYPGCSIVGGLAALSSNPEYPLSRVAMSLGLSTTASAQSIVQYLIDGLKKTPYLPVEIDSNSAPCKQNILRGEDASLAHFPIPQVHQHDGNRYVNTWGVFIVESPDGQWCNWSIQRVQYLNDRQMIALVFPSQHISDIWEEWVKIGKPMPYALVQGCEPIVPYIAGLPLLERNVNEAEYIGALYGKGIEVVKCETHDLRVPASSEVVIEGYFAITREGVEGPFGEFAGYTDNEPSLQPILSITAISWQDDPIWPVVAEGKPVDEYHTCTGIGDAAAIQNVLLTANLPVSFVWVPLYSACHLMIVSINRHWRQTHPDLTSEQLTKKVGDVIHQTRMSIKLPKIVVLDDDVDPADTESLLWALATRIHPVFKRYFYESNIFPWLNCYSEEERHNRKGKRVIIDALLPENHGTISSFDYAYPDDIKQRVLMHWETDFSHD
B9: I283T-P284D-i284aP-N287P-S322T-N388M-E421V-R422F-C430N-L432F-L434W-S436N-H461T-dG462 (protein)
chain: MFLKSLREQINLLKRQGDLRIINRPVDSYLEAAAIIRRSTETKAPVPLMTNIKGYPGCSIVGGLAALSSNPEYPLSRVAMSLGLSTTASAQSIVQYLIDGLKKTPYLPVEIDSNSAPCKQNILRGEDASLAHFPIPQVHQHDGNRYVNTWGVFIVESPDGQWCNWSIQRVQYLNDRQMIALVFPSQHISDIWEEWVKIGKPMPYALVQGCEPIVPYIAGLPLLERNVNEAEYIGALYGKGIEVVKCETHDLRVPASSEVVIEGYFAITREGVEGPFGEFAGYTDNEPSLQPILSITAISWQDDPIWPVVAEGKPVDEYHTCTGIGDAAAIQNVLLTANLPVSFVWVPLYSACHLMIVSINRHWRQTHPDLTSEQLTKKVGDVIHQTRMSIKLPKIVVLDDDVDPADTESLLWALATRIHPVFKRYFYESNIFPWLNCYSEEERHNRKGKRVIIDALLPENTGAISSFDYAYPDDIKQRVLMHWETDFSHD
B10: I283T-P284D-i284aP-N287P-S322T-N388M-E421V-C430N-L432F-L434W-S436N-H461V-dG462-A463T (protein)
chain: MFLKSLREQINLLKRQGDLRIINRPVDSYLEAAAIIRRSTETKAPVPLMTNIKGYPGCSIVGGLAALSSNPEYPLSRVAMSLGLSTTASAQSIVQYLIDGLKKTPYLPVEIDSNSAPCKQNILRGEDASLAHFPIPQVHQHDGNRYVNTWGVFIVESPDGQWCNWSIQRVQYLNDRQMIALVFPSQHISDIWEEWVKIGKPMPYALVQGCEPIVPYIAGLPLLERNVNEAEYIGALYGKGIEVVKCETHDLRVPASSEVVIEGYFAITREGVEGPFGEFAGYTDNEPSLQPILSITAISWQDDPIWPVVAEGKPVDEYHTCTGIGDAAAIQNVLLTANLPVSFVWVPLYSACHLMIVSINRHWRQTHPDLTSEQLTKKVGDVIHQTRMSIKLPKIVVLDDDVDPADTESLLWALATRIHPVRKRYFYESNIFPWLNCYSEEERHNRKGKRVIIDALLPENVGTISSFDYAYPDDIKQRVLMHWETDFSHD

Test system: 3-methylcrotonic acid
Assay type: biochemical, Yersinia frederiksenii
Set-up: key: “+” representing a low increase in activity; “++++” representing a high increase in activity

Molecule	Activity relative to WT
B1	++++
B2	++++
B3	+
B4	++++
B5	++++
B6	++++
B7	++++
B8	++++
B9	++++
B10	++++
